Experimental data published in the supplement of paper PMC10724198.
± gives the standard deviation of the averaged measurements.

What follows are sequences tested on Saccharomyces cerevisiae (assay: protein stability index of tFT-peptide fusion (C-terminal peptide) (PSI (0-1 scale)); higher = more stable (slower turnover)). Conditions: genetic background: wild type; temperature: 30 C.
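Also: PSI is a weighted mean of sequencing reads over stability bins, variants kept only with over 10 reads, mCherry proximal and sfGFP distal, peptide attached via GGGS linker.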

Row | Sequence | protein stability index
1 | FCSLLVLLFFGV | 0.39365 ± 4e-05
2 | FELSVSVFQSVV | 0.338 ± 0.031
3 | FERVEYEVLGIG | 0.415 ± 0.014
4 | FFASAAVHLVTC | 0.4533 ± 0.0034
5 | FFLLLVGFSVLG | 0.349 ± 0.0064
6 | FFLLTCFLLPSV | 0.441 ± 0.015
7 | FFLSFRLFSILL | 0.3114 ± 0.0026
8 | FFLVILSWWVGE | 0.242 ± 0.017
9 | FFMLWCRVLLRL | 0.2187 ± 0.002
10 | FFVFPFGLLFLS | 0.342 ± 0.0054
11 | FFVKGFRLLVFQ | 0.47 ± 0.015
12 | FIGVLVYICREG | 0.329 ± 0.032
13 | FITFLVFVGFFL | 0.355 ± 0.034
14 | FKKIKGKIEKKN | 0.481 ± 0.023
15 | FKWVSRIRLLDA | 0.316 ± 0.027
16 | FKYRVPLVGVVK | 0.347 ± 0.0072
17 | FLDYLLFIFFFF | 0.415 ± 0.008
18 | FLFQYLCIISSL | 0.217 ± 0.037
19 | FLGPMRVLVSSV | 0.522 ± 0.073
20 | FLLCRVFVLLRS | 0.163 ± 0.045
21 | FLLPWLRPVFFF | 0.293 ± 0.011
22 | FLLVGLLIVGCG | 0.225 ± 0.12
23 | FLSRVVLVVLLV | 0.288 ± 0.026
24 | FLVIILFFLYMR | 0.209 ± 0.011
25 | FLYSVLLICKFI | 0.135 ± 0.12
26 | FMANRYICQKTL | 0.185 ± 0.012

Row | Sequence | protein stability index
27 | FPCRNFMVFFCF | 0.29 ± 0.03
28 | FPFPLSSFLLLY | 0.4195 ± 0.0039
29 | FRSMFLFLNLLF | 0.412 ± 0.014
30 | FSFEGVLVPLLV | 0.396 ± 0.015
31 | FSFFLYFFLLLF | 0.315 ± 0.0031
32 | FSGRYFLLFRFL | 0.104 ± 0.019
33 | FSLLTWPFVFLV | 0.08711 ± 0.00051
34 | FVCWGSLILCGG | 0.264 ± 0.012
35 | FVFAMSECIVLS | 0.308 ± 0.0053
36 | FVLWLIYVDLFF | 0.287 ± 0.094
37 | FVSHRRFSLFLY | 0.209 ± 0.02
38 | FVVLVFMLGSVC | 0.365 ± 0.037
39 | FVVVGLGLLCLA | 0.473 ± 0.013
40 | FVWVVRMLVFVP | 0.276 ± 0.017
41 | FWHGRCPGLYLV | 0.27 ± 0.0087
42 | FYIRFYVYSWLF | 0.3604 ± 0.0023
43 | FYLSSCFLFLRF | 0.355 ± 0.0087
44 | GAVRRWGGVSFV | 0.259 ± 0.068
45 | GDLEFCCLIIVL | 0.321 ± 0.0098
46 | GELPGELYKFWL | 0.754 ± 0.03
47 | GFFLLSFLFFVR | 0.224 ± 0.032
48 | GFGDKVPWRWVI | 0.227 ± 0.045
49 | GFSVFSHSVWVR | 0.313 ± 0.014
50 | GGICVVAYWRLA | 0.198 ± 0.025
51 | GGMGLWCCVSVG | 0.527 ± 0.099
52 | GGRSLYAILCAV | 0.321 ± 0.03

Row | Sequence | protein stability index
53 | GGSLWLVHLKTI | 0.181 ± 0.044
54 | GGTFWDGLVLVH | 0.497 ± 0.097
55 | GGYGAGLRSPLF | 0.736 ± 0.044
56 | GINHLSLKLRLF | 0.262 ± 0.017
57 | GIVSGEGAVGVG | 0.509 ± 0.025
58 | GIVYFDQWISVS | 0.461 ± 0.052
59 | GLACNPQLLRWT | 0.756 ± 0.051
60 | GLFGFASPPPPS | 0.25 ± 0.032
61 | GLLAEPALLLLS | 0.499 ± 0.1
62 | GLLLLGIRLKWG | 0.269 ± 0.011
63 | GLLLRLRNLFCM | 0.522 ± 0.042
64 | GLVVVVRLQYSP | 0.404 ± 0.027
65 | GLYFFVVRIFKV | 0.27 ± 0.059
66 | GPGTWLFCFVRF | 0.509 ± 0.027
67 | GQFFRCWRRRLC | 0.171 ± 0.081
68 | GRGLRVCWVWSG | 0.286 ± 0.016
69 | GRHRRIRYVKTS | 0.261 ± 0.087
70 | GSLFANYNLKLF | 0.163 ± 0.025
71 | GSVHLTKERHLV | 0.319 ± 0.016
72 | GVAILFTFFRLL | 0.159 ± 0.022
73 | GVGHAWHYFCVC | 0.357 ± 0.025
74 | GVLIFLSFQPIA | 0.431 ± 0.037
75 | GVLRMAPGRVMC | 0.268 ± 0.032
76 | GVQFSVKWVKLG | 0.225 ± 0.019
77 | GVSLQLHVAVLI | 0.44 ± 0.047
78 | GVSLRVFVVSVC | 0.212 ± 0.053

Each sequence was assayed on Saccharomyces cerevisiae in the same assay as above. Conditions: genetic background: cdc34-1; temperature: 37 C.
Protocol: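 MPS profiling in S. cerevisiae of the tFT-X12 degron library: putative degron peptides plus stable controls, 12 aa, fused to the C-terminus of a sfGFP-mCherry timer. Cells are FACS-sorted into 8 mCherry/sfGFP bins and deep-sequenced. PSI runs from 0 (unstable) to 1 (stable). Backgrounds are wild type, das1Δ and doa10Δ at 30 °C, and wild type, das1Δ, cdc34-1 and cdc53-1 at 37 °C; 2-3 technical replicates each.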

Row | Sequence | protein stability index
79 | FCSLLVLLFFGV | 0.395 ± 0.042
80 | FELSVSVFQSVV | 0.318 ± 0.048
81 | FERVEYEVLGIG | 0.35 ± 0.0065
82 | FFASAAVHLVTC | 0.513 ± 0.01
83 | FFLLLVGFSVLG | 0.223 ± 0.071
84 | FFLLTCFLLPSV | 0.44 ± 0.03
85 | FFLSFRLFSILL | 0.304 ± 0.033
86 | FFLVILSWWVGE | 0.182 ± 0.023
87 | FFMLWCRVLLRL | 0.144 ± 0.026
88 | FFVFPFGLLFLS | 0.504 ± 0.058
89 | FFVKGFRLLVFQ | 0.454 ± 0.039
90 | FIGVLVYICREG | 0.1903 ± 0.0018
91 | FITFLVFVGFFL | 0.393 ± 0.06
92 | FKKIKGKIEKKN | 0.736 ± 0.021
93 | FKWVSRIRLLDA | 0.485 ± 0.014
94 | FKYRVPLVGVVK | 0.30503 ± 3.5e-05
95 | FLDYLLFIFFFF | 0.431 ± 0.054
96 | FLFQYLCIISSL | 0.0463 ± 0.007
97 | FLGPMRVLVSSV | 0.568 ± 0.03
98 | FLLCRVFVLLRS | 0.043 ± 0.019
99 | FLLPWLRPVFFF | 0.522 ± 0.056
100 | FLLVGLLIVGCG | 0.175 ± 0.0045
101 | FLSRVVLVVLLV | 0.258 ± 0.018
102 | FLVIILFFLYMR | 0.144 ± 0.043
103 | FLYSVLLICKFI | 0.214 ± 0.029
104 | FMANRYICQKTL | 0.522 ± 0.074

Row | Sequence | protein stability index
105 | FPCRNFMVFFCF | 0.425 ± 0.029
106 | FPFPLSSFLLLY | 0.385 ± 0.015
107 | FRSMFLFLNLLF | 0.458 ± 0.05
108 | FSFEGVLVPLLV | 0.31519 ± 3.7e-05
109 | FSFFLYFFLLLF | 0.327 ± 0.025
110 | FSGRYFLLFRFL | 0.238 ± 0.035
111 | FSLLTWPFVFLV | 0.126 ± 0.021
112 | FVCWGSLILCGG | 0.151 ± 0.0074
113 | FVFAMSECIVLS | 0.269 ± 0.014
114 | FVLWLIYVDLFF | 0.214 ± 0.039
115 | FVSHRRFSLFLY | 0.584 ± 0.038
116 | FVVLVFMLGSVC | 0.274 ± 0.035
117 | FVVVGLGLLCLA | 0.492 ± 0.0066
118 | FVWVVRMLVFVP | 0.178 ± 0.0058
119 | FWHGRCPGLYLV | 0.583 ± 0.11
120 | FYIRFYVYSWLF | 0.376 ± 0.0093
121 | FYLSSCFLFLRF | 0.174 ± 0.052
122 | GAVRRWGGVSFV | 0.626 ± 0.041
123 | GDLEFCCLIIVL | 0.4401 ± 0.0033
124 | GELPGELYKFWL | 0.769 ± 0.052
125 | GFFLLSFLFFVR | 0.148 ± 0.0056
126 | GFGDKVPWRWVI | 0.606 ± 0.037
127 | GFSVFSHSVWVR | 0.133 ± 0.044
128 | GGICVVAYWRLA | 0.4654 ± 0.0011
129 | GGMGLWCCVSVG | 0.665 ± 0.01
130 | GGRSLYAILCAV | 0.3216 ± 0.0018

Row | Sequence | protein stability index
131 | GGSLWLVHLKTI | 0.604 ± 0.059
132 | GGTFWDGLVLVH | 0.34 ± 0.023
133 | GGYGAGLRSPLF | 0.709 ± 0.04
134 | GINHLSLKLRLF | 0.647 ± 0.049
135 | GIVSGEGAVGVG | 0.46 ± 0.041
136 | GIVYFDQWISVS | 0.546 ± 0.031
137 | GLACNPQLLRWT | 0.692 ± 0.014
138 | GLFGFASPPPPS | 0.678 ± 0.042
139 | GLLAEPALLLLS | 0.661 ± 0.06
140 | GLLLLGIRLKWG | 0.139 ± 0.029
141 | GLLLRLRNLFCM | 0.759 ± 0.087
142 | GLVVVVRLQYSP | 0.309 ± 0.027
143 | GLYFFVVRIFKV | 0.219 ± 0.021
144 | GPGTWLFCFVRF | 0.504 ± 0.032
145 | GQFFRCWRRRLC | 0.634 ± 0.044
146 | GRGLRVCWVWSG | 0.622 ± 0.054
147 | GRHRRIRYVKTS | 0.633 ± 0.05
148 | GSLFANYNLKLF | 0.62289 ± 0.00034
149 | GSVHLTKERHLV | 0.66 ± 0.028
150 | GVAILFTFFRLL | 0.228 ± 0.086
151 | GVGHAWHYFCVC | 0.614 ± 0.044
152 | GVLIFLSFQPIA | 0.539 ± 0.021
153 | GVLRMAPGRVMC | 0.599 ± 0.031
154 | GVQFSVKWVKLG | 0.519 ± 0.022
155 | GVSLQLHVAVLI | 0.72 ± 0.39
